Values quoted from earlier work as cited in publication PMC7514057.

Target: ArkA peptide (Ark1p) Lys(3) to Lys(-8) (Saccharomyces cerevisiae) (UniProt P53974)

Abp1p SH3 (from UniProt P15891)
Kd: 1700 nM
